# Data published in patent US20140193401A1 (published 2014).
# Substitutions are numbered along the chain they refer to.
# T1: PTx-S1-220 (truncated PTx-S1, residues 1-220, strain Tohama I, variant B) (Bordetella pertussis, UniProt P04977 35-254)
# T1 construct: also called WT PTx-S1-220; PTx-S1B
# T1 sequence: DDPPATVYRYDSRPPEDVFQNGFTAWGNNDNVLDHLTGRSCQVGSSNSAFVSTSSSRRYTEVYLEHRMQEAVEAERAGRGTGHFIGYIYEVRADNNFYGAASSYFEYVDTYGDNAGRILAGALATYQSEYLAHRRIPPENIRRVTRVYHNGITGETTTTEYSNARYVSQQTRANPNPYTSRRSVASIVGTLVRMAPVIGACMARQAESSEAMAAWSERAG
# T2: PTx-S1-220 E155A (Bordetella pertussis, UniProt P04977 35-254)
# T2 chain: T1 sequence with E155A
# T3: PTx-S1-220 T156A (Bordetella pertussis, UniProt P04977 35-254)
# T3 chain: T1 sequence with T156A
# T4: PTx-S1-220 T159A (Bordetella pertussis, UniProt P04977 35-254)
# T4 chain: T1 sequence with T159A
# T5: PTx-S1-220 N176A (Bordetella pertussis, UniProt P04977 35-254)
# T5 chain: T1 sequence with N176A
# T6: PTx-S1-220 E16A (Bordetella pertussis, UniProt P04977 35-254)
# T6 chain: T1 sequence with E16A
# T7: PTx-S1-220 T81A (Bordetella pertussis, UniProt P04977 35-254)
# T7 chain: T1 sequence with T81A
# T8: PTx-S1-220 T158A (Bordetella pertussis, UniProt P04977 35-254)
# T8 chain: T1 sequence with T158A
# T9: PTx-S1-220 T153A (Bordetella pertussis, UniProt P04977 35-254)
# T9 chain: T1 sequence with T153A
# B1: murine monoclonal antibody 1B7 (antibody, V domains shown)
# VH: EVQLQQSGSELVRPGASVKLSCKASGYKFTSYWMHWVKQRPGQGLEWIGNIFPGSGSTNYDEKFNSKATLTVDTSSNTAYMQLSSLTSEDSAVYYCTRWLSGAYFDYWGQGTTLTVSS
# VL: DIQMTQSPALMSASPGEKVTMTCSASSSVSFMYWYQQKPRSSPKPWIYLTSNLPSGVPARFSGSGSGTSYSLTISSMEAEDAATYYCQQWSSHPPTFGSGTKLEIKR
# notes: also called mAb 1B7; 1B7 mAb
# Experiments:
# Test in all cases: SPR (BIAcore 3000), mAb 1B7 immobilised on CM5 chip, toxin injected
# [1] = target: T1, PTx-S1-220 (truncated PTx-S1, residues …)
# [2] = target: T2, PTx-S1-220 E155A
# [3] = target: T3, PTx-S1-220 T156A
# [4] = target: T4, PTx-S1-220 T159A
# [5] = target: T5, PTx-S1-220 N176A
# [6] = target: T6, PTx-S1-220 E16A
# [7] = target: T7, PTx-S1-220 T81A
# [8] = target: T8, PTx-S1-220 T158A
# [9] = target: T9, PTx-S1-220 T153A
binder,measurement,setting,value
B1,koff,[1],0.0014 s⁻¹
same,koff,[2],0.0011 s⁻¹
same,koff,[3],0.0011 s⁻¹
same,koff,[4],0.0014 s⁻¹
same,koff,[5],0.0011 s⁻¹
same,koff,[6],0.0016 s⁻¹
same,koff,[7],0.0017 s⁻¹
same,koff,[8],0.0013 s⁻¹
same,koff,[9],0.002 s⁻¹
